In the Immune Epitope Database (IEDB) one finds Kd data, which are given here for nine sequences.

Targets include HLA-A*69:01; HLA-B*08:01; HLA-B*15:01; HLA-B*44:02; HLA-B*35:01; HLA-A*31:01; HLA-A*01:01; HLA-B*07:02; HLA-A*03:01; HLA-A*02:01; HLA-B*27:05; HLA-A*11:01; HLA-B*40:01; HLA-B*58:01; HLA-A*26:01; HLA-A*24:03; HLA-B*18:01; HLA-A*68:02; HLA-A*02:19; HLA-B*57:01; HLA-B*27:03; HLA-B*51:01; HLA-B*46:01; HLA-A*02:12; HLA-C*03:03.
Assay in all cases: IEDB peptide-MHC binding, purified MHC/direct/fluorescence; filed as Kd, often an IC50 or EC50 that approximates it; ≥ and ≤ were set here for values at or beyond the usual limits of such assays
The target of another experiment is HLA-B*39:01. As to conditions: source organism: Cryptosporidium parvum Iowa II.
Another experiment deals with HLA-A*02:03. The following applies: source organism: Vibrio cholerae O139.
A further experiment deals with HLA-A*02:16. The following applies: source organism: Vibrio cholerae O139.
In the next experiment the target is HLA-B*15:17. As to conditions: source organism: Vibrio cholerae O139.
The next experiment deals with HLA-A*02:11. As to conditions: source organism: Vibrio cholerae O139.
The target in a further experiment is HLA-A*29:02. As to conditions: source organism: Vibrio cholerae O139.
The target in the next experiment is HLA-A*23:01. As to conditions: source organism: Vibrio cholerae O139.
The next experiment concerns the target HLA-C*14:02. The following applies: source organism: Mycobacterium tuberculosis str. Haarlem.
The target in another experiment is HLA-C*15:02. As to conditions: source organism: Mycobacterium tuberculosis str. Haarlem.
The mark [1] stands for this setting: source organism: Vibrio cholerae.
The mark [2] stands for this setting: source organism: Yersinia pestis.
[3] abbreviates: source organism: Giardia lamblia ATCC 50803.
The mark [4] stands for this setting: source organism: Cryptosporidium parvum Iowa II.
Setting [5] is: source organism: Vibrio cholerae O139.
The mark [6] stands for this setting: source organism: Escherichia coli O157:H7.
[7] abbreviates: source organism: Salmonella enterica subsp. enterica serovar Typhimurium.

As a reminder, the Kd is the free concentration of one partner at which half of the binding sites on the other are occupied at equilibrium, for simple one-to-one binding. For YFRNSGMTY, the Kd is not below 20 µM with HLA-A*69:01 (setting [1]); not below 20 µM with HLA-B*08:01 (setting [1]); 0.0853 µM in the experiment with HLA-B*15:01 (setting [1]); not below 20 µM with HLA-B*44:02 (setting [1]); 0.11 µM with HLA-B*35:01 (setting [1]); not below 20 µM with HLA-A*31:01 (setting [1]). The Kd is 1.46 µM with HLA-A*01:01 (setting [1]); not below 20 µM in the experiment with HLA-B*07:02 (setting [1]); not below 20 µM with HLA-A*03:01 (setting [1]); not below 20 µM in the experiment with HLA-A*02:01 (setting [1]); not below 20 µM with HLA-B*27:05 (setting [1]); not below 20 µM with HLA-A*11:01 (setting [1]). Moreover, the equilibrium dissociation constant (Kd) with HLA-B*40:01 (setting [1]), with HLA-B*58:01 (setting [1]) and with HLA-A*26:01 (setting [1]) was not below 20 µM in each case.

As for TMPELAWAV, the Kd is 0.0078 µM with HLA-A*69:01 (setting [2]); 15 µM with HLA-B*08:01 (setting [2]); not below 20 µM in the experiment with HLA-B*15:01 (setting [2]); not below 20 µM in the experiment with HLA-B*44:02 (setting [2]); 0.42 µM with HLA-B*35:01 (setting [2]); not below 20 µM in the experiment with HLA-A*31:01 (setting [2]). For the same sequence, the Kd with HLA-A*01:01 (setting [2]) was not below 20 µM; with HLA-B*07:02 (setting [2]) it was not below 20 µM; with HLA-A*03:01 (setting [2]) it was not below 20 µM; with HLA-A*02:01 (setting [2]), 0.0158 µM; with HLA-B*27:05 (setting [2]), not below 20 µM; with HLA-A*11:01 (setting [2]) it was not below 20 µM. For the same sequence, the Kd with HLA-B*40:01 (setting [2]), in the experiment with HLA-B*58:01 (setting [2]) and with HLA-A*26:01 (setting [2]) was not below 20 µM each time.

As to PTKCGENLY, the Kd in the experiment with HLA-A*69:01 (setting [3]) is 12.9 µM; in the experiment with HLA-B*08:01 (setting [3]) it was not below 20 µM; with HLA-B*15:01 (setting [3]) it was 2.36 µM; with HLA-B*44:02 (setting [3]) it was not below 20 µM; with HLA-B*35:01 (setting [3]), 5.2 µM; in the experiment with HLA-A*31:01 (setting [3]) it was not below 20 µM. In addition, the Kd with HLA-A*01:01 (setting [3]) was 7.76 µM; with HLA-B*07:02 (setting [3]), not below 20 µM; with HLA-A*03:01 (setting [3]) it was not below 20 µM; in the experiment with HLA-A*02:01 (setting [3]) it was not below 20 µM; with HLA-B*27:05 (setting [3]), not below 20 µM; with HLA-A*11:01 (setting [3]), not below 20 µM. For the same sequence, the dissociation constant Kd with HLA-B*40:01 (setting [3]), with HLA-B*58:01 (setting [3]), with HLA-A*24:03 (setting [3]) and with HLA-A*26:01 (setting [3]) was not below 20 µM each time.

YLAKLFLDH: the Kd in the experiment with HLA-B*39:01, with HLA-A*69:01 (setting [4]), with HLA-B*18:01 (setting [4]), with HLA-A*68:02 (setting [4]), with HLA-A*02:19 (setting [4]) and in the experiment with HLA-B*57:01 (setting [4]) was not below 20 µM in each case. Also, the Kd in the experiment with HLA-B*27:03 (setting [4]), in the experiment with HLA-B*51:01 (setting [4]), with HLA-B*46:01 (setting [4]), with HLA-A*02:12 (setting [4]) and with HLA-A*26:01 (setting [4]) was not below 20 µM throughout.

Regarding EKDSNHNVL, the Kd with HLA-A*02:03, with HLA-A*69:01 (setting [5]), with HLA-B*18:01 (setting [5]), in the experiment with HLA-A*68:02 (setting [5]), with HLA-A*02:16 and with HLA-B*15:01 (setting [5]) was not below 20 µM each time. In addition, the Kd with HLA-A*02:19 (setting [5]), with HLA-B*15:17, with HLA-B*57:01 (setting [5]), with HLA-B*27:03 (setting [5]), in the experiment with HLA-B*51:01 (setting [5]) and in the experiment with HLA-A*02:11 was not below 20 µM in each case. Further, the Kd in the experiment with HLA-A*03:01 (setting [5]), with HLA-A*02:01 (setting [5]), with HLA-A*29:02, with HLA-B*46:01 (setting [5]), with HLA-A*02:12 (setting [5]) and with HLA-A*24:03 (setting [5]) was not below 20 µM throughout. Further, the Kd with HLA-A*26:01 (setting [5]) and with HLA-A*23:01 was not below 20 µM each time.

The sequence MAVGVVLAL showed a Kd in the experiment with HLA-C*03:03 (source organism: Mycobacterium tuberculosis variant bovis BCG str. Pasteur 1173P2) of 0.024 µM.

With RYVGLYLPF, the Kd in the experiment with HLA-C*14:02 is not above 0.001 µM; with HLA-C*15:02, not below 20 µM; in the experiment with HLA-A*24:03 (source organism: Mycobacterium tuberculosis), 0.0002 µM.

The sequence KLDSGAFTV had a Kd with HLA-C*03:03 (source organism: Mycobacterium tuberculosis str. Haarlem) not below 20 µM.

With VVPLYDTPL, the Kd in the experiment with HLA-B*08:01 (setting [6]) is not below 20 µM; with HLA-B*15:01 (setting [7]) it was 1 µM; with HLA-B*44:02 (setting [6]), not below 20 µM; with HLA-B*35:01 (setting [7]), 0.315 µM; with HLA-A*31:01 (setting [6]), not below 20 µM; with HLA-A*01:01 (setting [6]), not below 20 µM. Besides, the Kd in the experiment with HLA-B*07:02 (setting [7]) was 8.95 µM; with HLA-A*03:01 (setting [6]), not below 20 µM; in the experiment with HLA-A*02:01 (setting [6]), not below 20 µM; in the experiment with HLA-B*27:05 (setting [6]), not below 20 µM; in the experiment with HLA-A*11:01 (setting [6]), not below 20 µM; with HLA-B*40:01 (setting [6]) it was not below 20 µM. The Kd in the experiment with HLA-B*58:01 (setting [6]), with HLA-A*24:03 (setting [6]) and with HLA-A*26:01 (setting [6]) was not below 20 µM in each case.
